Series [1] deals with FANCB-FANCL-FAAP100 complex (human, UniProt Q8NB91;Q9NW38;Q0VG06). Kind of series: SEC. Background: Size exclusion chromatography separates by hydrodynamic size, large species first.
Series [2] concerns the molecule itself. The series can be described thus: negative-stain single-particle EM.

The text below walks through data of PMC5266791 (Cell Reports, 2016).

FANCB-FANCL-FAAP100 complex, sequence (Q9NW38 whole entry, chain 2 of 2): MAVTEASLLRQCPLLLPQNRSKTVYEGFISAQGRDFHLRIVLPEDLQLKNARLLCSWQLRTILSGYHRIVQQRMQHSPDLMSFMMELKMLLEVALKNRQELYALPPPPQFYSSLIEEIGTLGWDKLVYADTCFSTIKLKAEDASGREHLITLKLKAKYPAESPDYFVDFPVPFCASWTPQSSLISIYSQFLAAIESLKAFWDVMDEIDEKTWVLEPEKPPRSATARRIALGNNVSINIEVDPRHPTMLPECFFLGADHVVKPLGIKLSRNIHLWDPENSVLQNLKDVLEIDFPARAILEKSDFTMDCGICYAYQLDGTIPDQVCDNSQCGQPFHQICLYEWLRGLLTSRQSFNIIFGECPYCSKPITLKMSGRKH
FANCB-FANCL-FAAP100 complex, sequence (Q0VG06 whole entry, chain 3 of 2): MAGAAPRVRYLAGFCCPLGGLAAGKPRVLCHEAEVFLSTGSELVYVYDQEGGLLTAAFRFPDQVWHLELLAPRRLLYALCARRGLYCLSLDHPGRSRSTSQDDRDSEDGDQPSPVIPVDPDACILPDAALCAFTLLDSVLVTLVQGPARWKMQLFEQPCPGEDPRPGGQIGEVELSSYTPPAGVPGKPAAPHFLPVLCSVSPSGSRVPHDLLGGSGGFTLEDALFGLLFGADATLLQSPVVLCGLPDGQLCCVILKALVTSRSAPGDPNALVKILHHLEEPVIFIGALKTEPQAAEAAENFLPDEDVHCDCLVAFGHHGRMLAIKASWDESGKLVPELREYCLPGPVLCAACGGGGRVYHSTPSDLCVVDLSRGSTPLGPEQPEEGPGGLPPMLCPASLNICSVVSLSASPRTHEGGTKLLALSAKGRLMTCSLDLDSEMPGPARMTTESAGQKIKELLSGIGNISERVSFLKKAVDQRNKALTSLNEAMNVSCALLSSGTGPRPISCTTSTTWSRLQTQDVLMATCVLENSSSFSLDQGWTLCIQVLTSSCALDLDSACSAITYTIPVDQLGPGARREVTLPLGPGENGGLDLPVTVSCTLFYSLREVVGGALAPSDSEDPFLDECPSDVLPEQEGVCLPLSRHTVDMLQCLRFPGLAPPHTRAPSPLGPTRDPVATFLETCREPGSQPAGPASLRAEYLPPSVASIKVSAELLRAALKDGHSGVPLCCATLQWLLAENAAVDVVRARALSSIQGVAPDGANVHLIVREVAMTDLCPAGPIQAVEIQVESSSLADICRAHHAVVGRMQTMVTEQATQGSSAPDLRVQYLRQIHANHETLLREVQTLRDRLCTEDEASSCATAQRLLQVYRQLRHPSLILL

B1: (MBP)FANCC-FANCE-FANCF complex (complex)
chain 1: MAQDSVDLSCDYQFWMQKLSVWDQASTLETQQDTCLHVAQFQEFLRKMYEALKEMDSNTVIERFPTIGQLLAKACWNPFILAYDESQKILIWCLCCLINKEPQNSGQSKLNSWIQGVLSHILSALRFDKEVALFTQGLGYAPIDYYPGLLKNMVLSLASELRENHLNGFNTQRRMAPERVASLSRVCVPLITLTDVDPLVEALLICHGREPQEILQPEFFEAVNEAILLKKISLPMSAVVCLWLRHLPSLEKAMLHLFEKLISSERNCLRRIECFIKDSSLPQAACHPAIFRVVDEMFRCALLETDGALEIIATIQVFTQCFVEALEKASKQLRFALKTYFPYTSPSLAMVLLQDPQDIPRGHWLQTLKHISELLREAVEDQTHGSCGGPFESWFLFIHFGGWAEMVAEQLLMSAAEPPTALLWLLAFYYGPRDGRQQRAQTMVQVKAVLGHLLAMSRSSSLSAQDLQTVAGQGTDTDLRAPAQQLIRHLLLNFLLWAPGGHTIAWDVITLMAHTAEITHEIIGFLDQTLYRWNRLGIESPRSEKLARELLKELRTQV
chain 2: MATPDAGLPGAEGVEPAPWAQLEAPARLLLQALQAGPEGARRGLGVLRALGSRGWEPFDWGRLLEALCREEPVVQGPDGRLELKPLLLRLPRICQRNLMSLLMAVRPSLPESGLLSVLQIAQQDLAPDPDAWLRALGELLRRDLGVGTSMEGASPLSERCQRQLQSLCRGLGLGGRRLKSPQAPDPEEEENRDSQQPGKRRKDSEEEAASPEGKRVPKRLRCWEEEEDHEKERPEHKSLESLADGGSASPIKDQPVMAVKTGEDGSNLDDAKGLAESLELPKAIQDQLPRLQQLLKTLEEGLEGLEDAPPVELQLLHECSPSQMDLLCAQLQLPQLSDLGLLRLCTWLLALSPDLSLSNATVLTRSLFLGRILSLTSSASRLLTTALTSFCAKYTYPVCSALLDPVLQAPGTGPAQTELLCCLVKMESLEPDAQVLMLGQILELPWKEETFLVLQSLLERQVEMTPEKFSVLMEKLCKKGLAATTSMAYAKLMLTVMTKYQANITETQRLGLAMALEPNTTFLRKSLKAALKHLGP
chain 3: MESLLQHLDRFSELLAVSSTTYVSTWDPATVRRALQWARYLRHIHRRFGRHGPIRTALERRLHNQWRQEGGFGRGPVPGLANFQALGHCDVLLSLRLLENRALGDAARYHLVQQLFPGPGVRDADEETLQESLARLARRRSAVHMLRFNGYRENPNLQEDSLMKTQAELLLERLQEVGKAEAERPARFLSSLWERLPQNNFLKVIAVALLQPPLSRRPQEELEPGIHKSPGEGSQVLVHWLLGNSEVFAAFCRALPAGLLTLVTSRHPALSPVYLGLLTDWGQRLHYDLQKGIWVGTESQDVPWEELHNRFQSLCQAPPPLKDKVLTALETCKAQDGDFEVPGLSIWTDLLLALRSGAFRKRQVLGLSAGLSSV
Regarding B1, in series [1], the binding result is given as “binds”.

B2: FANCB (natural protein)
chain: MTSKQAMSSNEQERLLCYNGEVLVFQLSKGNFADKEPTKTPILHVRRMVFDRGTKVFVQKSTGFFTIKEENSHLKIMCCNCVSDFRTGINLPYIVIEKNKKNNVFEYFLLILHSTNKFEMRLSFKLGYEMKDGLRVLNGPLILWRHVKAFFFISSQTGKVVSVSGNFSSIQWAGEIENLGMVLLGLKECCLSEEECTQEPSKSDYAIWNTKFCVYSLESQEVLSDIYIIPPAYSSVVTYVHICATEIIKNQLRISLIALTRKNQLISFQNGTPKNVCQLPFGDPCAVQLMDSGGGNLFFVVSFISNNACAVWKESFQVAAKWEKLSLVLIDDFIGSGTEQVLLLFKDSLNSDCLTSFKITDLGKINYSSEPSDCNEDDLFEDKQENRYLVVPPLETGLKVCFSSFRELRQHLLLKEKIISKSYKALINLVQGKDDNTSSAEEKECLVPLCGEEENSVHILDEKLSDNFQDSEQLVEKIWYRVIDDSLVVGVKTTSSLKLSLNDVTLSLLMDQAHDSRFRLLKCQNRVIKLSTNPFPAPYLMPCEIGLEAKRVTLTPDSKKEESFVCEHPSKKECVQIITAVTSLSPLLTFSKFCCTVLLQIMERESGNCPKDRYVVCGRVFLSLEDLSTGKYLLTFPKKKPIEHMEDLFALLAAFHKSCFQITSPGYALNSMKVWLLEHMKCEIIKEFPEVYFCERPGSFYGTLFTWKQRTPFEGILIIYSRNQTVMFQCLHNLIRILPINCFLKNLKSGSENFLIDNMAFTLEKELVTLSSLSSAIAKHESNFMQRCEVSKGKSSVVAAALSDRRENIHPYRKELQREKKKMLQTNLKVSGALYREITLKVAEVQLKSDFAAQKLSNL
Consider B2, for which, in series [2], the stoichiometry N (commonly a count of units in the complex or per binding partner) amounted to 2.
